This note sets out measurements from patent US20060257904, “Agglomeration protein cascades, compositions and methods regarding the same” (Q-RNA, Inc., published 2006).

For one data set, the target named is Tau441 (2N4R) (UniProt P10636-8 P10636-8:1-441). As to the kind of experiment: EMSA; 125 ng RNA, 1 ug Tau; affinity differs from Tau23. Particulars: tags: no His tag; rPeptide; label: 32P internal. (In EMSA bound probe runs differently from free probe, usually more slowly.)
For data set [1], the target named is hrPrP90-231 (C-terminal fragment) (Homo sapiens, UniProt P04156 P04156:90-231). As to the kind of experiment: filter. Particulars: tags: GST fusion removed by thrombin; label: 32P internal.
The next data set addresses BSA (UniProt P02769 P02769:25-607). As to the kind of experiment: filter; background; 20 nM protein, 2 nM RNA, 10 ng/ul tRNA. The note with it: tags: Ambion; label: 32P internal.
The target of a further data set is lysozyme (UniProt P00698 P00698:19-147). The description is as above. The note with it: label: 32P internal.
The target of data set [2] is T1, hrPrP23-231 (pEHPrP23-231) (Homo sapiens, UniProt P04156 P04156:23-231). As to the kind of experiment: EMSA. Particulars: tags: untagged; E. coli BL21(DE3) pLysS; label: 32P internal.
The target in a further data set is Tau23 (0N3R) (UniProt P10636-2 P10636-2:1-352). As to the kind of experiment: EMSA; 125 ng RNA, 1 ug Tau, protection buffer pH 7.4. Particulars: tags: 6-His; label: 32P internal.
Data set [3] has as its target hrPrP23-144 (N-terminal fragment) (Homo sapiens, UniProt P04156 P04156:23-144). As to the kind of experiment: filter; 20 nM protein, Buffer B plus tRNA. Particulars: tags: GST fusion removed by thrombin; label: 32P internal.
Data set [4] deals with T1, hrPrP23-231 (pEHPrP23-231). As to the kind of experiment: EMSA; 55 nM hrPrP, 10% BCS plus tRNA, urea gel. Particulars: tags: untagged; E. coli BL21(DE3) pLysS; label: 32P internal.

B1: RQ11+12 (ssRNA)
RNA: GGGGUUUCCAACCGGAAUUUGAGGGAUGCCUAGGCAUCCCCCGUGCGUCCCUUUACGAGGGAUUGUCGACUCUAGUCGACGUCUGGGCGAAAAAUGUACGAGAGGACCUUUUCGGUACAGACGGUACCUGAGGGUAUGCCUAGGCAUCCCCCGCGCCGGUUUCGGACCUCCAGUGCGUGUUACCGCACUGUCGACCC
For the molecule B1, the binding result with Tau441 (2N4R) is on record as “binds”; in data set [1], “no binding”; with BSA, “no binding”; with lysozyme, “no binding”; in data set [2], “binds”; with Tau23 (0N3R), “binds”. Besides, the binding result in data set [3] is given as “binds”.

B2: MNV:AP1 (PrP-Amp) (ssRNA)
RNA: GGGUUCAUAGCCUAUUCGGCUUCGCGCAUGGGAAUUUGAGGGACGAUGGGGAAGUGGGAGCGCGUUUUAAAGGACCUUUUUCCCUCGCGUAGCUAGCUACGCGAGGUGACCCCCCGAAGGGGGGUGCCCC
B2: in data set [4], the binding result was “binds”.
